Assay results from patent US20240360234A1 (NKARTA, published 2024).

Key:
[1] = target: T1, CD27 (endogenous, on Jurkat cells) (UniProt P26842 20-260, limits assumed); test: flow cytometry, CD70-hFc at 2 or 10 ug/ml on native Jurkat cells, anti-human Fc-APC detection
T1 construct: whole, on cells; also called the ligand for CD70
Procedure: FIGS. 27A-27F show data related to the ability of anti-CD70 CAR-expressing Jurkat cells to bind human bind CD70. […] Moving left to right are negative control, control for the antibody to human Fc, binding when 2 ug/ml of a CD70-hFc complex is incubated with the Jurkat cells and binding is detected with the human Fc-APC antibody, and binding when 10 ug/ml of a CD70-hFc complex is incubated with the Jurkat cells and binding is detected with the human Fc-APC antibody. […] Moving left to right is a control for the antibody to murine Fc, binding when 2 ug/ml of a CD70-murine Fc complex is incubated with the Jurkat cells and binding is detected with a murine Fc-APC antibody, and binding when 10 ug/ml of a CD70-murine Fc complex is incubated with the Jurkat cells and binding is detected with the murine Fc-APC antibody, and detection of Flag tag (present in the NK71/72 CAR constructs, but not native Jurkat cells). […] Moving left to right are negative control, control for the antibody to human Fc, binding when 2 ug/ml of a CD70-hFc complex is incubated with the Jurkat cells and binding is detected with the human Fc-APC antibody, and binding when 10 ug/ml of a CD70-hFc complex is incubated with the Jurkat cells and binding is detected with the human Fc-APC antibody. […]

[2] = target: T2, CD70-hFc complex (extracellular domain of human CD70 fused with the Fc region of human IgG1) (human) (UniProt P32970); test: flow cytometry, CD70-hFc at 2 ug/mL on NK71-transduced Jurkat cells (about 16% NK71 positive; the cells also carry endogenous CD27)
T2 sequence (looked up): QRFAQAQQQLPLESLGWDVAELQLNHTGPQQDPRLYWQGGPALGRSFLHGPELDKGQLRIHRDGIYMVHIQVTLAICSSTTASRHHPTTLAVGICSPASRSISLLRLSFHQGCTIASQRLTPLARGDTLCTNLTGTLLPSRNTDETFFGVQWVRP

[3] = target: T2, CD70-hFc complex (extracellular domain of human CD70 fused with the Fc region of human IgG1) (human); test: flow cytometry, CD70-hFc at 10 ug/mL on NK71-transduced Jurkat cells (about 16% NK71 positive; the cells also carry endogenous CD27)

T1 sequence (P26842 20-260 limits assumed): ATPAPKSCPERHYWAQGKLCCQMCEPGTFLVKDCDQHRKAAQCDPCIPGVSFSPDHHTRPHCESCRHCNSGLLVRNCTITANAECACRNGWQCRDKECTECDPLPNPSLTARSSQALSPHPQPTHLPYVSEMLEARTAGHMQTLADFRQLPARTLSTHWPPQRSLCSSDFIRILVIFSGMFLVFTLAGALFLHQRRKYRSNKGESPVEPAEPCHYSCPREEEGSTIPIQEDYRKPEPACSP

| Binder | binding result [1] | percent of Jurkat cells binding CD70 [2] [%] | percent of Jurkat cells binding CD70 [3] [%] |
| --- | --- | --- | --- |
| CD70-hFc complex (extracellular domain of human CD70 fused with the Fc region of human IgG1) (Fc fusion, UniProt P32970 39-193, looked up, range 39-193; Soluble reagent added at 2 or 10 ug/ml and detected with an anti-human Fc-APC antibody; not shown: Fc region of human IgG1, at the N-terminus of the fusion) QRFAQAQQQLPLESLGWDVAELQLNHTGPQQDPRLYWQGGPALGRSFLHGPELDKGQLRIHRDGIYMVHIQVTLAICSSTTASRHHPTTLAVGICSPASRSISLLRLSFHQGCTIASQRLTPLARGDTLCTNLTGTLLPSRNTDETFFGVQWVRP | binds | – | – |
| NK71 anti-CD70 CAR (scFv, not shown: a dimerising Fc or GST; small tags and cut ends) scFv: QVTLKESGPVLVKPTETLTLTCTVSGFSLSNARMGVTWIRQPPGKALEWLAHIFSNDEKSYSTSLKSRLTISKDTSKTQVVLTMTNMDPVDTATYYCARIRDYYDISSYYDYWGQGTLVSVSSGGGGSGGGGSGGGGSDIQMTQSPSAMSASVGDRVTITCRASQDISNYLAWFQQKPGKVPKRLIYAASSLQSGVPSRFSGSGSGTEFTLTISSLLPEDFATYYCLQLNSFPFTFGGGTKVEIN | – | 50 | > 80 |
